The values below are quoted from earlier work in US20110020225A1, “POROUS POLYMER PARTICLES IMMOBILIZED WITH CHARGED MOLECULES AND METHOD FOR PREPARING THE SAME” (KOREA RESEARCH INSTITUTE OF BIOSCIENCE AND BIOTECHNOLOGY, priority 2007, published 2011).

The conditions of this series: negative charge at pH 7.4.

B1: ovalbumin-fluorescent dye: ovalbumin-fluorescent dye (45 kDa, pI=4.6) having a negative charge at pH 7.4 (conjugate, UniProt P01012 2-386, looked up)
Ovalbumin: GSIGAASMEFCFDVFKELKVHHANENIFYCPIAIMSALAMVYLGAKDSTRTQINKVVRFDKLPGFGDSIEAQCGTSVNVHSSLRDILNQITKPNDVYSFSLASRLYAEERYPILPEYLQCVKELYRGGLEPINFQTAADQARELINSWVESQTNGIIRNVLQPSSVDSQTAMVLVNAIVFKGLWEKAFKDEDTQAMPFRVTEQESKPVQMMYQIGLFRVASMASEKMKILELPFASGTMSMLVLLPDEVSGLEQLESIINFEKLTEWTSSNVMEERKIKVYLPRMKMEEKYNLTSVLMAMGITDVFSSSANLSGISSAESLKISQAVHAAHAEINEAGREVVGSAEAGVDAASVSEEFRADHPFLFCIKHIATNAVLFFGRCVSP
modifications: fluorescent dye
With B1, the pI is given as 4.6.
